Experiment in all cases: affinity purification with mass spectrometry; HA-tagged TgWIP variants pulled down by the HA tag from lysates of DC2.4 cells infected 4 h at MOI 7; host partners by mass spectrometry; values are negative fold changes in peptide counts of the mutant immunoprecipitations relative to TgWIP^WT
Test [1] deals with TgWIP^Y150A/Y199A, HA-tagged (Toxoplasma gondii).
Test [2] has as its target TgWIP^(PRR2 mut), HA-tagged (Toxoplasma gondii).
The target in test [3] is TgWIP^(PRR3 mut), HA-tagged (Toxoplasma gondii).
In test [4] the target is TgWIP^(WIRS mut), HA-tagged (Toxoplasma gondii).

B1: Abi3, endogenous in murine DC2.4 cells (natural protein)
chain: MAELQQLQQLQEFDIPTGREALRGNHSALLRVANYCEDNYLQATDKRKALEETMAFTTQALASVAYQVGNLAGHTLRMLDLQGAALRQVEAKMSTLGQMVNMHMEKVARREIGTLATVVRLPSNQKVIPPESLPSLTPYHRKPLNFACLDDIGHGVKDLSTQLSRTGTLSRKSIKAPATPVSATLGRPPRIPEPVQLPAVPDGKLSAASSASSLASAGSAEGASGIPQSKGQVAPATPPPPPVAPVTPPPPPLSAEVFLPPPPLEVSQPPLEAELPLPPPPALEGDELGLLPPPPPGFGPDEPSWVPASYLEKVVTLYPYTRQKDNELSFSEGTVICVTRRYSDGWCEGVSSEGTGFFPGNYVEPSC
As for B1, the negative fold change in peptide counts relative to TgWIP^WT in test [1] turned out to be 1 fold; in test [2], 3 fold; in test [3], 7 fold; in test [4], 1 fold.

B2: Brk1 (Hspc300), endogenous in murine DC2.4 cells (natural protein)
chain: MAGQEDPVQREIHQDWANREYIEIITSSIKKISDFLNSFDMSCRSRLATLNEKLTALERRIEYIEARVTKGETLT
B2: the negative fold change in peptide counts relative to TgWIP^WT worked out at 1 fold in test [1], 4 fold in test [2], 9 fold in test [3] and 3 fold in test [4].

B3: Nckap1l (Hem1), endogenous in murine DC2.4 cells (natural protein)
chain: MSLTSAYQLKLAEKLTILNDRGQGVLIRMYNIKKTCSDSKSKPPFLLEKSMESCLKYINKKFPNIDVRNSTQHLGPVHREKAEIIRFLTNYYQSFVDVMEFRDHVYELLNTIDACQCHFDINLNFDFTRSYLDLIVTYTSVILLLSRIEDRRILIGMYNCAHEMLHGHSDPSFARLGQMVLEYDHPLKKLTEEFGPHTKAVSGALLSLHFLFVRRNQGAEQWRSAQLLSLISSPPAMINPANSDTMACEYLSVEVMERWIIIGFLLCHGCLNSNSQCQKLWKLCLEGSLYITLIREDVLQVHKVTEDLFSSLKGYSKRVADIKESKEHAITNSGQFHCQRRQFLRTAVKELETVLNDEPGLLGPKALFAFMALSFIRDEVTWLVRHTENVTKTKTPEDYADSSIAELLFLLEEIRALVRRHIKVIQQYHLQYLARFDVLVLSDIIQNLSVCPEEESVIMSSFVSILSSLNLKQVDNEEKFDFSGLRLDWFRLQAYTSVSKAPLHLHENPDLAKVMNLIIFHSQMLDSVEKMLVETSDLSTFCFHLRTFEKMFATTLEEPTMLRYTIAFPLICAHFVHCVHEMCPEEYPHLKNHGLHHCNSFLEDLAKQTSNCVLEICAEQRNLNEQLLPKHCATTISKAKNKKSMKQRQAPRKGEPERDKPGAESHRKNRSLVTNMDKLHLNLTELALAMNHVHSFSVFEHTIFPSEYLSSHLEARLNRAIVTLAGYNATTQEILRPSELLAGVKAYISFIQSLAQFLGADASRIVRNALLQQTQPLDSSGEQTVTTLYTNWYLESLLRQASSGAIVLSPAMQAFISLPRDGEQNFSAEEFSDISEMRALAEILGPYGMKFLSENLMWHVTSQIVELKKLVVENMDILVQIRSNFSKPELMASLLPQLTGAENVLKRMTIIGVILSFRAMAQEGLQEVFSAHCPFLMGPIECLKEFVTPDTDIKVTLSVFELACAAGVSCDIDPALVAAIANLKADNSSPEEEYKVACLLLIFLAVSLPLLATDPSSFFSIEKDGYNNNIHCLTKAIIQVSAALFTLYNKNIETHLKEFLVVASVSLLQLGQETDKLKTRNRESISLLMRLVVEESPFLTLDMLESCFPYVLLRNAYREVSRAFYLNRLPASSH
For B3, the negative fold change in peptide counts relative to TgWIP^WT in test [1] was 1 fold; in test [2], 3 fold; in test [3], 4 fold; in test [4], 2 fold.

These data come from publication PMC12691643.
